Among the data in patent publication US20200270352A1 are Kd and half-life of the complex values, retold here.

Test [1] has as its target soluble recombinant human IGF-1R hetero-tetramer (2 α chains and the extracellular domains of 2 β chains) with C-terminal 10-His tag (R&D Systems 305-GR-50) (human) (UniProt P08069). The experiment in a line: SPR Biacore X100, His-captured h-IGF-1R (about 600 RU), mean of 4 experiments.
For test [2] the target is unchanged. The experiment in a line: SPR, Ln(2)/koff.

B1: humanized antibody hz208F2 VH3/VL3 (hz208F2 H026/L024) (antibody, human IgG1, kappa, V domains shown)
VH: QVQLVQSGAEVKKPGASVKMSCKASGYTFTSYYIYWVKQAPGQGLEWLGWIWPGDGSTKYNEKFQGRVTLTADKSSNTAYMFLSSLRSEDTAVYFCASPMITPNYAMDYWGQGTLVTVSS
VL: DIQMTQSPSSLSASVGDRVTISCRASQDISKYLNWYQQKPGKAPKLLIYYTSRLHSGVPSRFSGRGSGTDYSLTISNLQPEDFATYFCQQGSTLPYTFGGGTKVEIKR
As to B1, the Kd in test [1] was 60 pM. In test [2], the half-life of the complex is 2 to 3 h.
